Assay [1] deals with T1, recombinant post-fusion RSV strain A2 F protein (human respiratory syncytial virus …, UniProt P03420 26-109; P03420 147-513).
T1 construct: Viral fusion glycoprotein, trimer of protomers (each cleaved into two disulfide-linked fragments); also called RSV A2; post-fusion RSV A2 F
The experiment in a line: ELISA on coated antigen.

Assay [2] concerns the target T2, post-fusion F protein from RSV strain 18537 B (human respiratory syncytial virus …, UniProt P13843 26-109; P13843 147-513).
T2 construct: also called RSV 18537 B; RSV 18537 B post-fusion F
The experiment in a line: ELISA on coated antigen. A general note: ELISA stands for enzyme-linked immunosorbent assay.

For assay [3], the target named is F protein on infectious RSV strain A2 (human respiratory syncytial virus …, UniProt P03420 26-574). The experiment in a line: cell-based or functional assay.
Target sequence in this assay (P03420 26-574): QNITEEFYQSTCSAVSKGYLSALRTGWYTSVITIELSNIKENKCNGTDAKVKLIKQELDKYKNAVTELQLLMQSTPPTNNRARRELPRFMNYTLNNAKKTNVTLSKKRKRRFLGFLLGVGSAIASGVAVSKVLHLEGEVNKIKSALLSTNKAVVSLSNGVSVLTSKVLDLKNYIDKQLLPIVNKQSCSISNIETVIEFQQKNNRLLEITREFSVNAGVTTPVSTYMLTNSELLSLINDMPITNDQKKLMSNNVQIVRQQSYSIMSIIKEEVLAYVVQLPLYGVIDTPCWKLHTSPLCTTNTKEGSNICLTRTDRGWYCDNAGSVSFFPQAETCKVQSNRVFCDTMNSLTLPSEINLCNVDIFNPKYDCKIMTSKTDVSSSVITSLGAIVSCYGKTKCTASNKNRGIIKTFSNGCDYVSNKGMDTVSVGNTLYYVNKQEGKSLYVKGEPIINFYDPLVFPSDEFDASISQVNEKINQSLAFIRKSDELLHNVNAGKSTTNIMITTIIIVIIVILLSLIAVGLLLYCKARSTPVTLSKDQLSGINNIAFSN
Assay [4] has the same target. The experiment in a line: cell-based or functional assay. This is another data set of the same source.
Target sequence in this assay (P03420 26-574): as above

T2 sequence (P13843 26-109, chain 1 of 2): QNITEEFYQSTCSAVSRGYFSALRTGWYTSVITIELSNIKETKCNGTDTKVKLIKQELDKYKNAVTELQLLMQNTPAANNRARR
T2 sequence (P13843 147-513, chain 2 of 2): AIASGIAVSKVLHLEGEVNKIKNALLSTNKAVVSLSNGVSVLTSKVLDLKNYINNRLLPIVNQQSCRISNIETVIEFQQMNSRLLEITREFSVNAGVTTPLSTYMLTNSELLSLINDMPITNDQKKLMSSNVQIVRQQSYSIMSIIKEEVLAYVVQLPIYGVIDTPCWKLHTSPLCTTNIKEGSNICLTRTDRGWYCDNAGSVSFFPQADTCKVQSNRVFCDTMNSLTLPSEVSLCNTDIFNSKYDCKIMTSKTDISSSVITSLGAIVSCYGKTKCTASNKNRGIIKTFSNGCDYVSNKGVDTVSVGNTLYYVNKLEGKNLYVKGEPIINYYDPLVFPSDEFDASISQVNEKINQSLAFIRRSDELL
T1 sequence (P03420 147-513, one chain of several): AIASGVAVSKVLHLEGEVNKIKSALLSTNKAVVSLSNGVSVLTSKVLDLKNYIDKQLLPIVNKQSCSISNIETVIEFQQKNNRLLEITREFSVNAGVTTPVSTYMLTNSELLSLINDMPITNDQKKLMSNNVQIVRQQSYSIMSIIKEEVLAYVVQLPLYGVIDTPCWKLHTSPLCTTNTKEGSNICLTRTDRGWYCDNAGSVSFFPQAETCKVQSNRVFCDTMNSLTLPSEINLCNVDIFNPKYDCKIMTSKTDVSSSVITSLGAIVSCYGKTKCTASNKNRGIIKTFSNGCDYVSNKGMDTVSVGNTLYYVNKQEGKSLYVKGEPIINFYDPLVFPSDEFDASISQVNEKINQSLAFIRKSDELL

B1: motavizumab (antibody, V domains shown)
VH: QVTLRESGPALVKPTQTLTLTCTFSGFSLSTAGMSVGWIRQPPGKALEWLADIWWDDKKHYNPSLKDRLTISKDTSKNQVVLKVTNMDPADTATYYCARDMIFNFYFDVWGQGTTVTVSS
VL: DIQMTQSPSTLSASVGDRVTITCSASSRVGYMHWYQQKPGKAPKLLIYDTSKLASGVPSRFSGSGSGTEFTLTISSLQPDDFATYYCFQGSGYPFTFGGGTKVEIK
As for B1, the EC50 (as a rule, the concentration that produces a half-maximal response) in assay [1] stood at 0.03 µg/mL; in assay [2], 0.035 µg/mL. Moreover, the “Neutralization (IC50; ng/mL) RSV A2, plaque-reduction assay” value (“Neutralization … plaque-reduction assay” for short) in assay [3] turned out to be 123 ng/mL.

B2: mAb 14N4 (antibody, V domains shown)
VH: QVQLVESGGGLIQPGGSLRLSCAVSGFTVSSKYMTWVRQAPGKGLEWVSVIYGGGSTYYADSVVGRFTISRDNSKNTLYLQMNSLRAEDTAVYYCASRLGVRATTGDLDYWGQGTLVTVSS
VL: QIVMTQSPSTLSASVGDRVTITCRASQSISSWLAWYQQKPGKAPKLLIYDASSLESGVPSRFSGSGSGTEFTLTISSLQPDDFATYYCQQYNTYSWWTFGQGTKVEIK
Take B2: the EC50 in assay [1] was determined as 0.078 µg/mL; in assay [2] it was 0.057 µg/mL. In addition, in assay [4], the “Neutralization … plaque-reduction assay” value was determined as 695 ng/mL.

B3: mAb 12I1 (antibody, V domains shown)
VH: QVQLVQSGGGVVQPGQSLRLSCAASGFSFSDYPIHWVRQAPGKGLEWVAGISYYGSNKFYADSVRGRFTISRDTSKNTFNLQMNSLKSEDTAVYYCARDGNPPRFLEYFDYWGQGTLVTVSS
VL: QPVVTQPRSVSGSPGQSVTISCTGSSSDVGGYNFVSWYRHHPGKAPKLLIYHVTKRPSGVPDRFSGSKSGNTASLTISGLQAEDEADYYCCSYAGSYTYVLFGGGTKLTVL
notes: Non-neutralizing, antigenic site VII
For B3, the EC50 is 0.026 µg/mL in assay [1] and 0.033 µg/mL in assay [2]. In addition, in assay [4], the “Neutralization … plaque-reduction assay” value was greater than 100000 ng/mL.

B4: mAb 4B6 (antibody, V domains shown)
VH: QVQLVQSGGGLAQPGRSLRLSCRASGFTFGDFNMNWFRQAPGKGLEWVGFIRRKAFGGATEYAASVKGRLTISRDDSKSIAYLQMNSLKTEDTAVYYCTRERGYVGSGGPFFDYWGQGTLVTVSS
VL: QAVVTQPPSVSGAPGQRVTISCTGSSSNIGAGYDVHWYQQLPGTAPKLLIYGDSNRPSGVPDRFSGSSSGTSASLAITGLQAEDEADYYCQSYDNSLSGSVFGTGTKVTVL
Take B4: the EC50 in assay [1] and in assay [2] was 0.024 µg/mL in each case. Also, in assay [4], the “Neutralization … plaque-reduction assay” value was greater than 100000 ng/mL.

B5: mAb 14C16 (antibody, V domains shown)
VH: QVQLGESGPALVKPTQTLTLTCTFSGFSLSTSEMCVSWIRQPPGKALEWLALIDWDGDKFFSTSLQSRLTISKSPSNNQVVLTMTNMDPVDSGTYFCARSTVRRSSGYYYYVLDVWGQGTLVTVSS
VL: QIVMTQSPSSLSASVGDRVTISCRASQSIGTYVNWYQHKPGKAPKVLISGASNLHSGVPSRFSGSGSGTDFTLTISSLQPEDFATYYCQQSYSPLTFGGGTTVEMK
With B5, the EC50 in assay [1] was 0.019 µg/mL; in assay [2] it was 0.02 µg/mL. Also, the “Neutralization … plaque-reduction assay” value in assay [4] is greater than 100000 ng/mL.

B6: mAb 9J5 (antibody, V domains shown)
VH: QVQLVQSGAEVKKPGSSVTVSCKASGGSFTNYAFSWVRQAPGQGLEWMGGIIPLLNMPNYAQKFRGRVTISADQSTTTAYMELSRLTSEDTAIYFCARGGQVGDFIVLRHFDSWGQGTLVTVSS
VL: TLSCRASESVSNYLAWYQQKPGQTPRLLIYGASTRATGIPARFSGSGSGSEFTLTISSLQSEDFAVYYCQQYNDWPRFSFGQGTKLEIK
On to B6, for which the figures for the EC50 in assay [1] and in assay [2] were 0.03 µg/mL and 0.04 µg/mL, respectively. Besides, the “Neutralization … plaque-reduction assay” value in assay [4] was greater than 100000 ng/mL.

B7: mAb D25 (antibody, V domains shown)
VH: QVQLVQSGAEVKKPGSSVMVSCQASGGPLRNYIINWLRQAPGQGPEWMGGIIPVLGTVHYAPKFQGRVTITADESTDTAYIHLISLRSEDTAMYYCATETALVVSTTYLPHYFDNWGQGTLVTVSS
VL: DIQMTQSPSSLSAAVGDRVTITCQASQDIVNYLNWYQQKPGKAPKLLIYVASNLETGVPSRFSGSGSGTDFSLTISSLQPEDVATYYCQQYDNLPLTFGGGTKVEIKR
B7: in assay [3], the “Neutralization … plaque-reduction assay” value was determined as 21 ng/mL.

B8: mAb 13A8 (antibody, V domains shown)
VH: QVQLVESGGGVVQPGKSLRLSCAASGYIFSSYDMHWVRQAPGKGLEWVAVISFDGTTQHYADSVRGRFTVSRDNSQNTVFLQMNSLRPEDTAVYYCVKEYVIVSTFFDYWGQGTLVTVSS
VL: DIVMTQSPSSLSASVGDRVTITCRASQGIRNALGWYQHKPGKAPKVLIYAASRLQSGVPSRFSGSGSGTDFTLTISSLQPEDFATYYCLQDFNYPWTFGHGTKVEIK
For B8, the EC50 in assay [1] is 0.082 µg/mL; in assay [2] it was 0.064 µg/mL. Besides, in assay [4], the “Neutralization … plaque-reduction assay” value stood at 55 ng/mL.

B9: mAb 10F13 (antibody, V domains shown)
VH: QVQLVQSGGGVVQPGRSLRLSCAASGFPFRIYSMHWVRQAPGKGLEWVALISYDGTNKQYADSVNGRFTISRDNSENTMYLQMNSLRPEDTAIYYCATDIVELVTATDYWGQGTLVTVSS
VL: AVVTQSPGTLSLSPGDRATLSCRASQSVSTSLGWYQQKPGQSPRLLIYGTSRRATGVPDRFSGSGSETDFTLTISRLEPEDFSVYYCQQYGSSPYTFGQGTRLEIK
notes: The printed light chain has an unusual N-terminal part
For the molecule B9, the EC50 came to 0.017 µg/mL in assay [1] and 0.021 µg/mL in assay [2].

B10: mAb 3J20 (antibody, V domains shown)
VH: EVQLVESGGGLVQPGGSLRLSCAASGFTFSSFTMNWVRQAPGKGLQWVSTISGSGGLTYYADSVKGRFTISRDNSKNTLSLQMNSLRAEDTAVYYCARDLEFTVTSYGGYYFEYWGQGTLVTVSS
VL: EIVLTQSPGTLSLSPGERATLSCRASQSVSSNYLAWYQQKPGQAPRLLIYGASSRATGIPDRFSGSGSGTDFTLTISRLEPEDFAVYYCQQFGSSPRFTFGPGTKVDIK
In the case of B10, the EC50 in assay [1] was found to be 0.084 µg/mL; in assay [2], 0.05 µg/mL. Also, the “Neutralization … plaque-reduction assay” value in assay [4] stood at 377 ng/mL.

Values taken from patent US20190240316A1 (VANDERBILT UNIVERSITY, published 2019).
